We go through six molecules from paper PMC10366545, “Phosphoregulation of DNA repair via the Rad51 auxiliary factor Swi5–Sfr1” (The Journal of Biological Chemistry, 2023).

The chains are these.
B2: Rad51 (natural protein, S. pombe, UniProt P36601 1-365, looked up)
chain: MADTEVEMQVSAADTNNNENGQAQSNYEYDVNVQDEEDEAAAGPMPLQMLEGNGITASDIKKIHEAGYYTVESIAYTPKRQLLLIKGISEAKADKLLGEASKLVPMGFTTATEYHIRRSELITITTGSKQLDTLLQGGVETGSITELFGEFRTGKSQICHTLAVTCQLPIDMGGGEGKCLYIDTEGTFRPVRLLAVADRYGLNGEEVLDNVAYARAYNADHQLELLQQAANMMSESRFSLLVVDSCTALYRTDFSGRGELSARQMHLARFMRTLQRLADEFGIAVVITNQVVAQVDGISFNPDPKKPIGGNILAHSSTTRLSLRKGRGEQRICKIYDSPCLPESEAIFAINSDGVGDPKEIIAPV
notes: Rad51 recombinase, S. pombe; also called S. pombe Rad51; Rad51-ssDNA filament

In data set [1] the target is T1, Rad51 (Schizosaccharomyces pombe, UniProt P36601 1-365).
T1 sequence: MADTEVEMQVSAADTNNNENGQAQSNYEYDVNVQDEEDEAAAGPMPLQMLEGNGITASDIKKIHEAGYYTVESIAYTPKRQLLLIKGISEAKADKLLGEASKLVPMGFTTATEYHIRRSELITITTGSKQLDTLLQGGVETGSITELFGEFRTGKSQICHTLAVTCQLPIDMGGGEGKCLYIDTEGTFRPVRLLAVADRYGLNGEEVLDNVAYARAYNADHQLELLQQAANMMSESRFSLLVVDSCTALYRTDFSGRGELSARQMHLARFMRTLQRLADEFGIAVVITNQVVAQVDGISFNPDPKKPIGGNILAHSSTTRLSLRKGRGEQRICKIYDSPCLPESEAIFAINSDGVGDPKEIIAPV
Description: streptavidin pull-down; 2 mM ATP, 5 mM Mg2+; EMSA: 25 mM Hepes-KOH pH 7.5, 100 mM KCl, 3.5 mM MgCl2, 0.5 mM TCEP, 5% glycerol, 20 nM DNA, 37 C 15 min, 0.8% agarose in TAE at 4 C; pull-down: 25 mM Tris-Cl pH 7.5, 100 mM NaCl, 2 mM ATP, 5 mM MgCl2, 37 C. To be noted: protein: recombinant; label: 5' biotin. (In EMSA bound probe runs differently from free probe, usually more slowly.)

For data set [2], the target named is T2, Rad51;Swi5-Sfr1 (S5S1) wild type (Schizosaccharomyces …, UniProt P36601;Q9UUB7;Q9USV1 1-365;1-85;1-299, |).
T2 sequence 1: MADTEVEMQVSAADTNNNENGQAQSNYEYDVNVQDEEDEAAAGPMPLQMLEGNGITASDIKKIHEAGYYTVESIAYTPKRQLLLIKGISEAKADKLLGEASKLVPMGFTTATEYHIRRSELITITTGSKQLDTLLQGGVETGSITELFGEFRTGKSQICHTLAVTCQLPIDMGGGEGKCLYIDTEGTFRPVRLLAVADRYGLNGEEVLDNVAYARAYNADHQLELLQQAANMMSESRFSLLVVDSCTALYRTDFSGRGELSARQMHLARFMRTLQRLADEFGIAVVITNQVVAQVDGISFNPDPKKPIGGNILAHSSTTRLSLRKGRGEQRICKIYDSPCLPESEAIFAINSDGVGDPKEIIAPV
T2 sequence 2: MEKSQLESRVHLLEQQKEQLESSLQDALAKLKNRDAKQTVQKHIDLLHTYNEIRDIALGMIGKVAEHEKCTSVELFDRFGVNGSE
T2 sequence 3: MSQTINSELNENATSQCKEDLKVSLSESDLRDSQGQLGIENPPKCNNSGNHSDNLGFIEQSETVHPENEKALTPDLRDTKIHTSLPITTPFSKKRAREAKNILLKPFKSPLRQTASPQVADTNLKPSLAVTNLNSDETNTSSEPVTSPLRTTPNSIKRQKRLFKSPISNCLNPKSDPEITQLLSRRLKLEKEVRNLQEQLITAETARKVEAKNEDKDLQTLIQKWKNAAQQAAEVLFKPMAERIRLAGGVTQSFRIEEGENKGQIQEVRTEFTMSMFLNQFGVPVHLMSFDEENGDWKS
The experiment in a line: streptavidin pull-down; ATP, Mg2+, Fbh1-Skp1; S5S1 antagonizes disruption; EMSA: 25 mM Hepes-KOH pH 7.5, 100 mM KCl, 3.5 mM MgCl2, 0.5 mM TCEP, 5% glycerol, 20 nM DNA, 37 C 15 min, 0.8% agarose in TAE at 4 C; pull-down: 25 mM Tris-Cl pH 7.5, 100 mM NaCl, 2 mM ATP, 5 mM MgCl2, 37 C. To be noted: protein: recombinant;recombinant; tags: ;N-terminal His6 on Sfr1; label: 5' biotin.

For data set [3], the target named is T3, Swi5–Sfr1 complex (wildtype, hexahistidine-tagged Sfr1) (S. pombe, UniProt Q9USV1 1-299; Q9UUB7 1-85).
T3 construct: Sfr1, S. pombe; Swi5, S. pombe; Made in E. coli, so it serves as the unphosphorylated sample; also called S5S1; wildtype S5S1; source: E. coli BL21 DE3 (pRARE2), Sfr1 co-expressed with Swi5 from pET11b, purified (His-tag column, HiTrap Q, Superdex 200); not shown: His6, N-terminal, kept
T3 sequence (looked up) 1: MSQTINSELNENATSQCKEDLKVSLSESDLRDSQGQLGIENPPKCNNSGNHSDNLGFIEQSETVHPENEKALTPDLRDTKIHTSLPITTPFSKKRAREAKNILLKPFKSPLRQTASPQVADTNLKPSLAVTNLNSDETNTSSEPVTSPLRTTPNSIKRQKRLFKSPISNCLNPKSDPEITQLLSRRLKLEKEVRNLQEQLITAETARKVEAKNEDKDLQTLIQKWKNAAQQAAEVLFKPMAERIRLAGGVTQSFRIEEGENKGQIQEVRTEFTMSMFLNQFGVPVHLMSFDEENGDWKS
T3 sequence (looked up) 2: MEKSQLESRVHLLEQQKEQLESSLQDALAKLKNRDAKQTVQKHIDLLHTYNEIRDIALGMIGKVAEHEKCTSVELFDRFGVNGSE
The experiment in a line: pull-down; in solution; nickel resin holds hexahistidine-tagged S5S1; 500 nM each protein; 30 mM Tris-Cl 7.5, 100 mM KCl, 5 mM MgCl2, 1 mM ATP, 0.25 mM TCEP, 5% glycerol, 0.05% Tween-20; 30 °C 15 min, then resin 1 h at 4 °C; SDS-PAGE, Coomassie. The note with it: both partners purified.

Data set [4] deals with T4, Swi5–Sfr1 nonphosphorylatable mutant complex (S5S1-NON) (S. pombe, UniProt Q9USV1 1-299; Q9UUB7 1-85, S24 to A | T73 to A | S109 to A | S116 to A | S165 to A).
T4 construct: Sfr1, S. pombe, five S/T phosphosites (S24, T73, S109, S116, S165) mutated to A; Swi5, S. pombe; source: E. coli BL21 DE3 (pRARE2), Sfr1 co-expressed with Swi5 from pET11b, purified (His-tag column, HiTrap Q, Superdex 200); not shown: His6, N-terminal, kept
T4 sequence (looked up) 1: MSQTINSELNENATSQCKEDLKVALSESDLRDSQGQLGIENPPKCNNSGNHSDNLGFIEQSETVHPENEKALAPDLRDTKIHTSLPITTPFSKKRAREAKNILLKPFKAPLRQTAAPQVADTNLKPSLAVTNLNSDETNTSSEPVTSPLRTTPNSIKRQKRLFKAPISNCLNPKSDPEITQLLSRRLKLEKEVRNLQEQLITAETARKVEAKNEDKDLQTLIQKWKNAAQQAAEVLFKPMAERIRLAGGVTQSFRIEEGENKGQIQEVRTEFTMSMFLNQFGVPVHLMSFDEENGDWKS
T4 sequence (looked up) 2: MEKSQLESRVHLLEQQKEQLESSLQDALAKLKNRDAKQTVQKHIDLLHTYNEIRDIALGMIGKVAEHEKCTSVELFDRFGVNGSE
The data set is described as above. The note with it: both partners purified.

In data set [5] the target is T1, Rad51. The experiment in a line: negative-stain EM; 2 mM ATP, 5 mM Mg2+; EMSA: 25 mM Hepes-KOH pH 7.5, 100 mM KCl, 3.5 mM MgCl2, 0.5 mM TCEP, 5% glycerol, 20 nM DNA, 37 C 15 min, 0.8% agarose in TAE at 4 C; pull-down: 25 mM Tris-Cl pH 7.5, 100 mM NaCl, 2 mM ATP, 5 mM MgCl2, 37 C. The note with it: protein: recombinant.
Data set [6] concerns the target T2, Rad51;Swi5-Sfr1 (S5S1) wild type. The experiment in a line: negative-stain EM; 2 mM ATP, 5 mM Mg2+; longer filaments; EMSA: 25 mM Hepes-KOH pH 7.5, 100 mM KCl, 3.5 mM MgCl2, 0.5 mM TCEP, 5% glycerol, 20 nM DNA, 37 C 15 min, 0.8% agarose in TAE at 4 C; pull-down: 25 mM Tris-Cl pH 7.5, 100 mM NaCl, 2 mM ATP, 5 mM MgCl2, 37 C. The note with it: protein: recombinant;recombinant; tags: ;N-terminal His6 on Sfr1.

Data set [7] deals with B2. Description: pull-down; filament binding assay: Rad51 (3.33 μM) filaments on circular ssDNA (10 μMnt) held on streptavidin beads through a biotinylated oligonucleotide; 3.33 μM S5S1 added, 5 min 37 °C; 25 mM Tris-Cl 7.5, 100 mM NaCl, 3.5 mM MgCl2, 2 mM ATP, 0.5 mM TCEP, 5% glycerol, 0.05% Tween-20; Sfr1 signal normalised to Rad51, relative to wildtype, n = 3. The note with it: both partners purified.

The target in data set [8] is T5, Swi5-Sfr1 (S5S1) wild type (Schizosaccharomyces pombe, UniProt Q9UUB7;Q9USV1 1-85;1-299).
T5 sequence 1: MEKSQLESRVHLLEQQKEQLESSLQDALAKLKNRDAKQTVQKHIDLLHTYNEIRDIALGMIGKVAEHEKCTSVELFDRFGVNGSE
T5 sequence 2: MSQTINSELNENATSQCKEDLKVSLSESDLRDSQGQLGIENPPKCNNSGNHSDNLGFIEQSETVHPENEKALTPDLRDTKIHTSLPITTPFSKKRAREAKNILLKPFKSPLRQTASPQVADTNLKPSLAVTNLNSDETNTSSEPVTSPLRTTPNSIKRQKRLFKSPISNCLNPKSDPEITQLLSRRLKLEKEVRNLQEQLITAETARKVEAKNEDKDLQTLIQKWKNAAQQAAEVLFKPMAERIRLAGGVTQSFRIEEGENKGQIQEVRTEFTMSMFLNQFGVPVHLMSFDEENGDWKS
The experiment in a line: EMSA; 3.5 mM Mg2+; EMSA: 25 mM Hepes-KOH pH 7.5, 100 mM KCl, 3.5 mM MgCl2, 0.5 mM TCEP, 5% glycerol, 20 nM DNA, 37 C 15 min, 0.8% agarose in TAE at 4 C; pull-down: 25 mM Tris-Cl pH 7.5, 100 mM NaCl, 2 mM ATP, 5 mM MgCl2, 37 C. To be noted: protein: recombinant, tags: N-terminal His6 on Sfr1, copies: 1;1.

B1: BA655 100-mer ssDNA (ssDNA)
DNA: ATAAGGCCACGTATTTTGCAAGCTATTTAACTGGCGGCGATTGCGTACCCGACGACCAAAATTAGGGTCAACGCTACCTGTAGGAAGTGTCCGCATAAAG
As for B1, the binding result (with Rad51 [1]; in data set [2]) was “binds” each time.

Consider B2, for which the binding result in data set [3] and in data set [4] was “binds” in each case.

B3: BA494 116-mer ssDNA (ssDNA)
DNA: TTCAATATCTGGTTGAACGGCGTCGCGTCGTAACCCAGCTTGGTAAGTTGGATTAAGCACTCCGTGGACAGATTTGTCATTGTGAGCATTTTCATCCCGAAGTTGCGGCTCATTCT
Consider B3, for which the binding result (with Rad51 [5]; in data set [6]) was “binds” throughout.

B4: Swi5–Sfr1 phosphomimetic mutant complex (S5S1-PM) (complex, S. pombe)
chain 1: MSQTINSELNENATSQCKEDLKVDLSESDLRDSQGQLGIENPPKCNNSGNHSDNLGFIEQSETVHPENEKALDPDLRDTKIHTSLPITTPFSKKRAREAKNILLKPFKDPLRQTADPQVADTNLKPSLAVTNLNSDETNTSSEPVTSPLRTTPNSIKRQKRLFKDPISNCLNPKSDPEITQLLSRRLKLEKEVRNLQEQLITAETARKVEAKNEDKDLQTLIQKWKNAAQQAAEVLFKPMAERIRLAGGVTQSFRIEEGENKGQIQEVRTEFTMSMFLNQFGVPVHLMSFDEENGDWKS
chain 2: MEKSQLESRVHLLEQQKEQLESSLQDALAKLKNRDAKQTVQKHIDLLHTYNEIRDIALGMIGKVAEHEKCTSVELFDRFGVNGSE
notes: Sfr1, S. pombe, five S/T phosphosites (S24, T73, S109, S116, S165) mutated to D; Swi5, S. pombe; source: E. coli BL21 DE3 (pRARE2), Sfr1 co-expressed with Swi5 from pET11b, purified (His-tag column, HiTrap Q, Superdex 200); not shown: His6, N-terminal, kept
On to B4, for which the “fold reduction in coprecipitation with Rad51 filaments against wildtype S5S1” value with Rad51 [7] is about 5 fold.

B5: BA663 80-mer ssDNA (ssDNA)
DNA: TTGATAAGAGGTCATTTTTGCGGATGGCTTAGAGCTTAATTGCTGAATCTGGTGCTGTAGCTCAACATGTTTTAAATATG
Consider B5, for which the binding result in data set [8] (label: 3' Cy5) is reported as “binds”.

B6: BA663/BA664 80-bp dsDNA (dsDNA)
DNA 1: TTGATAAGAGGTCATTTTTGCGGATGGCTTAGAGCTTAATTGCTGAATCTGGTGCTGTAGCTCAACATGTTTTAAATATG
DNA 2: CATATTTAAAACATGTTGAGCTACAGCACCAGATTCAGCAATTAAGCTCTAAGCCATCCGCAAAAATGACCTCTTATCAA
Take B6: the binding result in data set [8] (label: 3' Cy5 on BA663, blunt) is given as “binds”.
